From US20050013808A1, “Nitroreductase enzymes” (priority 2001, published 2005)
Substitutions are numbered along the chain they refer to. Names and notes keep the numbering of the source.

B1: F124N (protein)
chain: MDIISVALKRHSTKAFDASKKLTPEQAEQIKTLLQYSPSSTNSQPWHFIVASTEEGKARVAKSAAGNYVFNERKMLDASHVVVFCAKTAMDDVWLKLVVDQEDADGRFATPEAKAANDKGRKFNADMHRKDLHDDAEWMAKQVYLNVGNFLLGVAALGLDAVPIEGFDAAILDAEFGLKEKGYTSLVVVPVGHHSVEDFNATLPKSRLPQNITLTEV
B2: Y68G: NTR mutant, tyrosine 68 to glycine (protein)
chain: B1 chain with Y68G, N124F
B3: N71S F124K: NTR double mutant, asparagine 71 to serine combined with phenylalanine 124 to lysine (protein)
chain: B1 chain with N71S, N124K
B4: F124H: NTR mutant, phenylalanine 124 to histidine (protein)
chain: B1 chain with N124H
B5: T41L: NTR mutant, threonine 41 to leucine (protein)
chain: B1 chain with T41L, N124F
B6: Wild type: wild-type E. coli nitroreductase (NTR) encoded by the NfsB gene, SEQ ID NO:1 (protein, listed as Escherichia coli)
chain: B1 chain with N124F
B7: F124K: NTR mutant, phenylalanine 124 to lysine (protein)
chain: B1 chain with N124K

Columns and labels:
[1] = test system: UT5600 cells (NTR−) lysogens; test: Replica-plate screening of mutant NTR-expressing lysogens on increasing CB1954 (growth score); assay type: cell-based, E. coli; parameters: key to Score: 0: Good growth on all concentrations of CB 1954 = vector; Good growth on 100 and 200, faint on 300, ring of growth on 400 μM; Good growth on 100 and 200, ring growth on 300, none or very faint on 400 μM; Good growth on 100, faint to good on 200, none or very faint on 300 and 400 μM; 4: Good growth on 100 μM, none to ring growth on 200 μM = wild type; Good growth on 50 μM, ring on 100 μM, none on 200, 300 or 400 μM; 6: Faint growth on 50 μM, ring on 100 μM; 7: Good growth on 50 μM, none on 100 μM; 8: Ring growth on 50 μM, none on 100 μM; 9: None or very faint growth on 50 μM, none on 100 μM; 10: None or ring growth on 35 μM; settings: for Score: growth of lysogens on agar with kanamycin, IPTG and 0-400 μM CB1954, wild type = 4, higher = more sensitive
Description: The ligation mix was packaged (Stratagene) into lambda bacteriophage particles that were used to infect UT5600 cells (NTR ^−). As a control wild type NTR was also cloned into this vector (JG16C2). Kanamycin resistant lysogens were selected on agar plates ([…] kanamycin) then individually grown overnight in a well of a 96-well plate in LB+Kanamycin. The clones were replica plated on to a series of plates containing Tris-buffered (50 mM, pH 7.5) LB agar with kanamycin, IPTG (0.1 mM) and CB1954 at a concentration of 0, 25, 35, 50, 100, 200, 300 or 400 μM (see FIG. 3). […]

[2] = test system: UT5600 cells (NTR−) lysogens; test: Survival curve (colony count) IC50 of CB1954 in NTR-expressing lysogens; assay type: cell-based, E. coli; settings: concentration of CB1954 giving 50% reduction in colony number after 36h growth; lysogen expressing the named NTR
Description: To quantify the improvement in NTR activity in the clones in a less subjective way, a few clones were selected for further study by determining their survival curves. The lysogens were grown overnight in LB +kanamycin and diluted to approximately 1 cell per μl based on the OD. In duplicate, 100 μl diluted cells were plated into Tris-buffered LB plates containing kanamycin, IPTG and 0-400 μM CB1954. After 36h growth the number of colonies on each plate were counted and expressed as a percentage of the number present on the plates with no CB1954. Survival curves showing % survival versus concentration of CB 1954 were plotted (see examples in FIG. 7) and the IC50 determined as the concentration of CB 1954 which kills gives a 50% reduction in colony number (Table 3 and FIG. 8). A few clones containing mutations resulting in an enhanced sensitivity to CB 1954 were selected for further study.

[3] = test system: HeLa cells; test: CB1954 sensitisation of HeLa cells after adenoviral NTR expression (MTS viability); assay type: cell-based, human; settings: range of MOIs, 0-50 μM CB1954, 5 hour exposure, MTS assay
Description: Sensitisation of HeLa cells to CB1954 was assayed using the following protocol. Cells were infected with NTR-expressing viruses in suspension (2 hours) at a range of MOIs prior to plating into microtitre plates (10^4 cells/well). After a 24 hour expression period, CB1954 was applied at a range of concentrations (0-50 μM) and after a 5 hour exposure to the prodrug, cell viability was assessed using the Promega MTS cell substrate killing assay (2-3 hour incubation before plate reading at OD450 nm). […] Adenovirus titreing by plaque formation on helper cells is however an error-prone process. To correct for this, experiments were performed with multiple independent titred preparations of each virus.
The titres of these mixes were assumed to be the means of the respective experimentally determined titres. For western blot analysis of NTR expression for normalisation purposes, whole cell extracts were resolved by SDS-PAGE on an 11% separation gel and blotted onto a nitrocellulose membrane. NTR was detected using a sheep anti-NTR serum (1:1000 diluted), donkey anti-sheep IgG labelled with HRP (horseradish peroxidase) and SuperSignal West Pico Chemiluminescence substrate (Pierce), analysed with an Alpha Innotech Imager Model #2.3.1. The relative loading of each well was determined by Coomassie blue staining of the gel post transfer.

[4] = Steady state kinetics of purified NTR, variable substrate nitrofurazone; assay type: biochemical; settings: fixed substrate NADH
Description: (§1) Wild type NTR and selected mutants were purified as described by Lovering et al., 2001. Steady state kinetic studies were carried out by monitoring the disappearance of nitrofurazone ( ? =12,960, Zenno, et al., 1994) and nitrofurantoin ( ? =12,020, McOsker, et al., 1992) at 420 nm or the disappearance of reduced benzoquinone ( ? =18,5000), 2-nitrofuran ( ? =10,250, McOsker, et al., 1992), 2-nitrobenzamide ( ? =9,750, McOsker, et al., 1992) and 4 nitrobenzamide ( ? =9,720, McOsker, et al., 1992) at 300 nm. The formation of the 4 hydroxylamine product of CB1954 reduction was monitored at 420 nm ( ? =7900, Richard Knox, personal communication).
(§2) All reactions were performed in quartz cuvettes with either a 0.1-, 0.5-, or 1-cm pathlength. In all cases the reaction was initiated by the addition of a small amount of cold enzyme solution to the reaction mix. Assays were performed in 10 mM Tris HCL pH 7.0. The temperature of each reaction was maintained at 25° C. by means of a circulating water bath. All substrates examined were dissolved in DMSO, with the final concentration of organic solvent not exceeding 4% (v/v), concentrations>5% (v/v) give definable enzyme inhibition. In all assay the final DMSO concentration was at 4%. All steady state data were collected in an aerobic environment. Kinetic data were collected at concentration ranges extending from 0.1 of Km to the maximum possible concentration permitted by substrate solubility or optical absorbance. In all cases maximum substrate concentrations exceeded 5×Km. All data was analysed using the commercial package Sigma Plot™ and fit with non-linear regression to a rectangular hyperbola of the form: y=ax/b+x

[5] = Steady state kinetics of purified NTR, variable substrate CB1954; assay type: biochemical; settings: for kinetic parameters compared with wild type: second substrate CB1954, nucleotide NADH; for Km / kcat: variable substrate CB1954, fixed substrate NADH
Description: as §1, §2

[6] = Steady state kinetics of purified NTR, variable substrate NADH; assay type: biochemical; settings: fixed substrate nitrofurazone; for Km: 10 mM Tris HCl pH 7.0, 25° C., 4% DMSO
Description: as §1, §2

[7] = nitrofurazone and nitrofurantoin as substrates; cited from earlier work

| Molecule | nitroreductase activity with CB1954 compared with wild-type [1] | Score [1] | IC50 [2] | sensitisation of HeLa cells to CB1954 killing compared with WT NTR [3] | Km [4] | kcat [4] | kinetic parameters compared with wild type [5] | Km [5] | kcat [5] | kcat [6] | Km [6] | nitroreductase activity compared with wild-type [7] |
| --- | --- | --- | --- | --- | --- | --- | --- | --- | --- | --- | --- | --- |
| B1 | substantially greater activity with CB 1954 than the wild-type | 8-10 | 21 µM | more extensive cell killing than that caused by expression of the WT enzyme |  |  |  |  |  |  |  |  |
| B2 |  | 7 | 43 µM |  | 699 ± 24 µM | 59.02 ± 0.4 s⁻¹ | large improvement in catalytic activity vs. second substrate but not in kcat/Km | 1840 ± 44 µM | 11.5 ± 0.9 s⁻¹ | 54.77 ± 0.55 s⁻¹ | 22 ± 1 µM |  |
| B3 |  | 9 | 16 µM | more extensive cell killing than that caused by expression of the WT enzyme |  |  |  |  |  |  |  |  |
| B4 | substantially greater activity with CB 1954 than the wild-type | 7-9 | 41 µM |  | 104 ± 10 µM | 10.7 ± 0.267 s⁻¹ | significant improvement in kcat/Km for both nucleotide and second substrate | 526 ± 10 µM | 5.93 ± 0.583 s⁻¹ | 10.3 ± 0.217 s⁻¹ | 3 ± 0.4 µM | approximately double the wild-type activity |
| B5 |  | 5-7 | 38 µM |  | 79 ± 11 µM | 35.14 ± 0.612 s⁻¹ | best bimolecular rate constant vs. the second substrate | 871 ± 77 µM | 16.2 ± 1.37 s⁻¹ | 35.18 ± 0.583 s⁻¹ | 5 ± 2 µM |  |
| B6 |  | 4 | 118 µM |  | 157 ± 4 µM | 11.4 ± 0.05 s⁻¹ |  | 852 ± 8 µM | 5.7 ± 0.417 s⁻¹ | 11 ± 0.383 s⁻¹ | 7 ± 1 µM |  |
| B7 | substantially greater activity with CB 1954 than the wild-type | 8-10 | 23 µM |  | 53 ± 5 µM | 12.6 ± 0.25 s⁻¹ | significant improvement in kcat/Km for both nucleotide and second substrate | 371 ± 12 µM | 5.72 ± 0.717 s⁻¹ | 12 ± 0.15 s⁻¹ | 1 ± 0.2 µM |  |
